Data published in patent publication US20250090677A1 (MULTITUDE THERAPEUTICS, published 2025).

What was measured:
[1] = target: T1, CDH6 on the cell surface of OVCAR-3 cells (human ovarian cancer cells) (human, UniProt P55285 54-790); assay: flow cytometry (FACS) on OVCAR-3 cells, antibody titration, labelled secondary antibody, MFI
T1 construct: whole, on cells; also called CDH6-positive human ovarian cancer cell line OVCAR-3
T1 sequence (looked up): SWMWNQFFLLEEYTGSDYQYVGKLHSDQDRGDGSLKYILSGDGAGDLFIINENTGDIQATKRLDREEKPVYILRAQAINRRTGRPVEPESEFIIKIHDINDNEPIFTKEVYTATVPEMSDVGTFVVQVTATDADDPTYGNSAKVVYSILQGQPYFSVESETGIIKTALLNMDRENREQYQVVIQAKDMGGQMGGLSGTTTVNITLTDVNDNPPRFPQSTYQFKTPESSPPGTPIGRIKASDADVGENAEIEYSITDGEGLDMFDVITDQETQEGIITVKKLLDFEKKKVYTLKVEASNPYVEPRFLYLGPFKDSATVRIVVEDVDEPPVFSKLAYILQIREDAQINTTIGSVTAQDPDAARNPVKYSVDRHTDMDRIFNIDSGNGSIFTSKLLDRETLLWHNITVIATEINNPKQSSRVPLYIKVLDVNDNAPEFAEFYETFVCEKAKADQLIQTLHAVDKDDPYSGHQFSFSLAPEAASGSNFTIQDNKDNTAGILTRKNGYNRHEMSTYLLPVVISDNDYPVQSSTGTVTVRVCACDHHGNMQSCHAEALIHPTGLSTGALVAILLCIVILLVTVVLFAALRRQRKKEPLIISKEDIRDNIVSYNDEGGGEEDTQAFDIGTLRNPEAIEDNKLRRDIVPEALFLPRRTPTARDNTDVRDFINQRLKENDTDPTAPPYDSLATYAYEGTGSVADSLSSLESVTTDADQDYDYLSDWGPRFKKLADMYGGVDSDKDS
Experimental: The binding EC50 of the humanized antibodies on tumor cell were tested as follow. Human ovarian cancer cell line OVCAR-3(purchased from National Collection of Authenticated Cell Cultures) cell culture was maintained in vitro as independent monolayer cultures at 37° C. in an atmosphere of 5% CO₂. The cells were harvested using trypsin-EDTA partial digestion followed by centrifugation at 1000 rpm for 5 minutes. The cell was resuspended in cold PBS and serial dilution of Ch069707 and CL069707-H1L1, CL069707-H1L2, CL069707-H2L1 and CL069707-H2L2 antibodies were added. Ch069707 antibody was a chimeric antibody. The variable regions were the same as those of CL069707, and the constant region was the same as human IgG1 constant regions (SEQ ID NO: 70 and SEQ ID NO: 71). The cell solutions were mixed, incubated at 4° C. and washed with cold PBS prior to addition of secondary antibody conjugates (for detection purposes). After incubation at 4° C., the cells were washed with PBS, and then subjected to flow cytometry (FACS) analysis.

recombinant protein CDH6 [2] = target: T2, recombinant protein CDH6 (UniProt P55285 54-615); assay: ELISA, CDH6 coated; antibody 12.5 ng/mL
T2 construct: also called CDH6 recombinant protein; CDH6 antigen
T2 sequence (looked up): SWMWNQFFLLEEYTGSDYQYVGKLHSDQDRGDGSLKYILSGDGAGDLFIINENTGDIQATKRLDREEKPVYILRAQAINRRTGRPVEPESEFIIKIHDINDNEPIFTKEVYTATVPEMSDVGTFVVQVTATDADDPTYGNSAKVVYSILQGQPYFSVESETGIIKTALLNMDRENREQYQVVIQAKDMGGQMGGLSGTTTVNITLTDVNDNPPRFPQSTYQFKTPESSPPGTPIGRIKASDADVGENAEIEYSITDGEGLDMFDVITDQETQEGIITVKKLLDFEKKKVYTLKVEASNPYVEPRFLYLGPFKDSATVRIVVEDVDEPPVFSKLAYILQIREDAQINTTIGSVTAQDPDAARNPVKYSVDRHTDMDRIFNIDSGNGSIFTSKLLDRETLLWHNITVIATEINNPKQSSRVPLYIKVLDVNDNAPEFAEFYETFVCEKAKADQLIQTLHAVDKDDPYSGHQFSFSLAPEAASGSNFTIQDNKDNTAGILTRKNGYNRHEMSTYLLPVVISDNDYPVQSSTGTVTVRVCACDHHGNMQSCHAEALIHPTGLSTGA
Experimental: (§1) The recombinant protein CDH6 was coated on ELISA plates at 1 μg/mL overnight at 4° C.; after being washed with PBST, the plate was added with 10% fetal bovine serum, and the mixture was blocked at 37° C. for 1 h; the plate was added with 13 monoclonal antibodies of CDH6 with different dilutions (0.1 ng/mL to 100 ng/mL), and the mixture was reacted at 37° C. for 1 h; after being washed with PBST, the plate was added with horseradish peroxidase-labeled goat anti-human IgG secondary antibody (Goat anti Mouse (HRP), Thermo Fisher Scientific), and the mixture was reacted at 37° C. for 30 min; after the plate was repeatedly washed with PBST 5 times, the remaining droplets on the absorbent paper were patted as much as possible; each well of the plate was added with 100 μL of TMB (eBioscience) and placed in the dark at room temperature (20±5° C.) for 1.5 min; each well of the plate was added with 100 μL of 2 N H₂SO₄ stop buffer for stopping substrate reaction, OD values at 450 nm were read using a microplate reader, and the binding ability of the antibody to the target antigen CDH6 was analyzed.

recombinant protein CDH6 [3] = target: T2, recombinant protein CDH6; assay: ELISA, CDH6 coated; antibody 50 ng/mL
Experimental: as §1

recombinant protein CDH6 [4] = target: T2, recombinant protein CDH6; assay: ELISA, CDH6 coated at 1 ug/mL
Experimental: as §1

recombinant protein CDH6 [5] = target: T2, recombinant protein CDH6; assay: ELISA, CDH6 coated; antibody 0.78 ng/mL
Experimental: as §1

recombinant protein CDH6 [6] = target: T2, recombinant protein CDH6; assay: ELISA, CDH6 coated; antibody 100 ng/mL
Experimental: as §1

recombinant protein CDH6 [7] = target: T2, recombinant protein CDH6; assay: ELISA, CDH6 coated; antibody 3.13 ng/mL
Experimental: as §1

recombinant protein CDH6 [8] = target: T2, recombinant protein CDH6; assay: ELISA, CDH6 coated; antibody 1.56 ng/mL
Experimental: as §1

recombinant protein CDH6 [9] = target: T2, recombinant protein CDH6; assay: ELISA, CDH6 coated; antibody 6.25 ng/mL
Experimental: as §1

recombinant protein CDH6 [10] = target: T2, recombinant protein CDH6; assay: ELISA, CDH6 coated; antibody 0.39 ng/mL
Experimental: as §1

recombinant protein CDH6 [11] = target: T2, recombinant protein CDH6; assay: ELISA, CDH6 coated; antibody 0.10 ng/mL
Experimental: as §1

recombinant protein CDH6 [12] = target: T2, recombinant protein CDH6; assay: ELISA, CDH6 coated; antibody 0.20 ng/mL
Experimental: as §1

recombinant protein CDH6 [13] = target: T2, recombinant protein CDH6; assay: ELISA, CDH6 coated; antibody 25 ng/mL
Experimental: as §1

B1: CL069707-H1L2 (antibody, human IgG1, kappa, V domains shown)
VH: EVQLVESGGGLVQPGGSLRLSCAASGFTFTTYAMNWVRQAPGKGLEWVARIRIKNNNYATYYADSVTDRFTISRDDSKNSLYLQMNSLKTEDTAVYYCVRPDYGNYGLAYWGQGTLVTVSS
VL: DIQLTQSPSSLSASVGDRVTITCSASSSISSHYLHWYQQKPGKSPKLLIYRSFYLASGVPLRFSGSGSGTDFTLTISSLQPEDFATYYCQQDIVPLTFGQGTKLEIKR
notes: Humanized IgG1/kappa, produced in 293 cells
- EC50 (read off the curve) [1]: ~1 nM

B2: CL069707 antibody (antibody, V domains shown)
VH: EVHLVESGGGLVQPKGSLKLSCVASGFTFTTYAMNWVRQAPGKGLEWVARIRIKNNNYATYYADSVTDRFTISRDDSQSMLYLQMNNLKTEDTAMYYCVRPDYGNYGLAYWGQGTLVTVSA
VL: EIVLTQSPTTMAASPGEKITITCSASSSISSHYLHWYQQKPGFSPKLLIYRSFYLASGVPLRFTGSGSGTSYSLTIGTMEAEDVATYYCQQDIVPLTFGAGTKLELK
notes: Mouse monoclonal antibody from hybridoma, purified from ascites with Protein A/G; also called #23; No. 23
- OD450 (recombinant protein CDH6 [2]): 1.27 OD450
- OD450 (recombinant protein CDH6 [3]): 1.33 OD450
- sensitivity (recombinant protein CDH6 [4]): ≤ 1.56 ng/mL
- OD450 (recombinant protein CDH6 [5]): 0.305 OD450
- OD450 (recombinant protein CDH6 [6]): 1.41 OD450
- OD450 (recombinant protein CDH6 [7]): 0.831 OD450
- OD450 (recombinant protein CDH6 [8]): 0.577 OD450
- OD450 (recombinant protein CDH6 [9]): 1.01 OD450
- OD450 (recombinant protein CDH6 [10]): 0.165 OD450
- OD450 (recombinant protein CDH6 [11]): 0.069 OD450
- OD450 (recombinant protein CDH6 [12]): 0.101 OD450
- OD450 (recombinant protein CDH6 [13]): 1.18 OD450

B3: CL069707-H2L1 (antibody, human IgG1, kappa, V domains shown)
VH: EVQLVESGGGLVQPGGSLRLSCAASGFTFTTYAMNWVRQAPGKGLEWVGRIRIKNNNYATYYADSVTDRFTISRDDSKNSLYLQMNSLKTEDTAVYYCVRPDYGNYGLAYWGQGTLVTVSS
VL: DIQLTQSPSSLSASVGDRVTITCSASSSISSHYLHWYQQKPGKSPKLLIYRSFYLASGVPSRFSGSGSGTDFTLTISSLQPEDFATYYCQQDIVPLTFGQGTKLEIKR
notes: as for B1
- EC50 (read off the curve) [1]: ~1 nM

B4: CL069707-H2L2 (antibody, human IgG1, kappa, V domains shown)
VH: EVQLVESGGGLVQPGGSLRLSCAASGFTFTTYAMNWVRQAPGKGLEWVGRIRIKNNNYATYYADSVTDRFTISRDDSKNSLYLQMNSLKTEDTAVYYCVRPDYGNYGLAYWGQGTLVTVSS
VL: DIQLTQSPSSLSASVGDRVTITCSASSSISSHYLHWYQQKPGKSPKLLIYRSFYLASGVPLRFSGSGSGTDFTLTISSLQPEDFATYYCQQDIVPLTFGQGTKLEIKR
notes: as for B1
- EC50 (read off the curve) [1]: ~1 nM

B5: CL069439 antibody (antibody, V domains shown)
VH: EVQLQQSGTELVRTGASVKISCKASGYSFTGYYIHWIKQSHGESLEWIGYISCFNGDTSYNQNFKDRATFNVDTSSSTAYMQFISLTSEDSAVYYCVRGRYGNFNYFDYWGQGTTLTVSS
VL: DIVLTQSPASLAVSLGQRATISCRASESVEFYGTSLMQWFQQKPGHPPQLLIYATSNVDSGVPARFSASGSGTDFSLNIHPVEEADIAMYFCQQSRRIPWTFGGGTKLEIK
notes: Mouse monoclonal antibody from hybridoma, purified from ascites with Protein A/G; also called #16; No. 16
- OD450 (recombinant protein CDH6 [2]): 3.62 OD450
- OD450 (recombinant protein CDH6 [3]): 3.89 OD450
- sensitivity (recombinant protein CDH6 [4]): ≤ 1 ng/mL
- OD450 (recombinant protein CDH6 [5]): 0.647 OD450
- OD450 (recombinant protein CDH6 [6]): 3.9 OD450
- OD450 (recombinant protein CDH6 [7]): 1.87 OD450
- OD450 (recombinant protein CDH6 [8]): 1.11 OD450
- OD450 (recombinant protein CDH6 [9]): 2.82 OD450
- OD450 (recombinant protein CDH6 [10]): 0.255 OD450
- OD450 (recombinant protein CDH6 [11]): 0.106 OD450
- OD450 (recombinant protein CDH6 [12]): 0.181 OD450
- OD450 (recombinant protein CDH6 [13]): 3.69 OD450

B6: CL069463 antibody (antibody, V domains shown)
VH: EVQLVESGGGLVQPKGSLKLSCAASGFTFNTYALTWVRQAPGKGLEWVGRIKSKNKDYETYYADSVKDRFTISRNDSQSLLYLQMNNLKTEDTAIYYCVRQNWNYFDYWGQGTTLTVSS
VL: DIQMTQSPASLAASVGETVTITCRASENIYYSLAWYQQRQGKSPQLLIYNANSLKDGVPSRFSGSGSGTQYSMKINSMQPEDTATYFCQQAYDVPPTFGGGTKLEIK
notes: Mouse monoclonal antibody from hybridoma, purified from ascites with Protein A/G; also called #13; No. 13
- OD450 (recombinant protein CDH6 [2]): 1.7 OD450
- OD450 (recombinant protein CDH6 [3]): 2.32 OD450
- sensitivity (recombinant protein CDH6 [4]): ≤ 3.12 ng/mL
- OD450 (recombinant protein CDH6 [5]): 0.211 OD450
- OD450 (recombinant protein CDH6 [6]): 2.62 OD450
- OD450 (recombinant protein CDH6 [7]): 0.596 OD450
- OD450 (recombinant protein CDH6 [8]): 0.374 OD450
- OD450 (recombinant protein CDH6 [9]): 0.975 OD450
- OD450 (recombinant protein CDH6 [10]): 0.139 OD450
- OD450 (recombinant protein CDH6 [11]): 0.073 OD450
- OD450 (recombinant protein CDH6 [12]): 0.086 OD450
- OD450 (recombinant protein CDH6 [13]): 1.8 OD450

B7: CL069066 antibody (antibody, V domains shown)
VH: EVKLLESGGGLVQPGGSLKLSCAASGFDFSRYWMTWVRQAPGKGLEWIGEINPDSSTINYTPSLKDKFIISRDNAKNTLYLQMNKVTSEDTALYYCTRRPHYYGYFDSWGQGTTLTVSS
VL: DIVLTQSPASLAVSLGQRATISCRASESVEYYGTTLMQWYQQKPGQPPQLLIYAGSNVESGVPARFSGSGSGTEFSLNIHPVEEDDIGMYFCQQSRKVPWTFGGGTKLEIK
notes: Mouse monoclonal antibody from hybridoma, purified from ascites with Protein A/G; also called #4; No. 4
- OD450 (recombinant protein CDH6 [2]): 1.08 OD450
- OD450 (recombinant protein CDH6 [3]): 2.11 OD450
- sensitivity (recombinant protein CDH6 [4]): ≤ 6.3 ng/mL
- OD450 (recombinant protein CDH6 [5]): 0.094 OD450
- OD450 (recombinant protein CDH6 [6]): 2.38 OD450
- OD450 (recombinant protein CDH6 [7]): 0.3 OD450
- OD450 (recombinant protein CDH6 [8]): 0.17 OD450
- OD450 (recombinant protein CDH6 [9]): 0.577 OD450
- OD450 (recombinant protein CDH6 [10]): 0.063 OD450
- OD450 (recombinant protein CDH6 [11]): 0.048 OD450
- OD450 (recombinant protein CDH6 [12]): 0.05 OD450
- OD450 (recombinant protein CDH6 [13]): 1.69 OD450
